According to PMC8456781, “Myosin-X and talin modulate integrin activity at filopodia tips” (Cell Reports, 2021):
Where no end group is shown, it is not given here.

B1: conserved region of the α2-integrin tail, peptide (peptide)
peptide: WKLGFFKRKYEKM
modifications: also: biotinylated, position not given here
notes: Integrin alpha-2 (ITGA2), conserved membrane-proximal region of the cytoplasmic tail; also called ITGA2^WT; ITGA2; source: synthetic peptide (custom, LifeTein)
B2: His-TLN1^FERM (recombinant talin-FERM domain) (domain or fragment)
chain: RPLKIRMLDGTVKTIMVDDSKTVTDMLMTICARIGITNHDEYSLVRELMEEKKDEGTGTLRKDKTLLRDEKKMEKLKQKLHTDDELNWLDHGRTLREQGVEEHETLLLRRKFFYSDQNVDSRDPVQLNLLYVQARDDILNGSHPVSFDKACEFAGFQCQIQFGPHNEQKHKAGFLDLKDFLPKEYVKQKGERKIFQAHKNCGQMSEIEAKVRYVKLARSLKTYGVSFFLVKEKMKGKNKLVPRLLGITKECVMRVDEKTKEVIQEWSLTNIKRWAASPKSFTLDFGDYQDGYYSVQTTEGEQIAQLIAGYIDIILKKK
modifications: RED-tris-NTA dye on the His tag (Monolith His-Tag Labeling Kit)
B3: wild-type β1-integrin tail peptide (peptide)
peptide: KLLMIIHDRREFAKFEKEKMNAKWDTGENPIYKSAVTTVVNPKYEGK
modifications: also: biotinylated, position not given here
notes: Integrin beta-1 (ITGB1) cytoplasmic tail; also called β-tail peptide; integrin β tail; source: synthetic peptide (custom, LifeTein)
B4: His-tagged MYO10^FERM (recombinant MYO10 MyTH4/FERM domain) (domain or fragment)
chain: TPTQQLIQDIKENCLNSDVVEQIYKRNPILRYTHHPLHSPLLPLPYGDINLNLLKDKGYTTLQDEAIKIFNSLQQLESMSDPIPIIQGILQTGHDLRPLRDELYCQLIKQTNKVPHPGSVGNLYSWQILTCLSCTFLPSRGILKYLKFHLKRIREQFPGSEMEKYALFTYESLKKTKCREFVPSRDEIEALIHRQEMTSTVYCHGGGSCKITINSHTTAGEVVEKLIRGLAMEDSRNMFALFEYNGHVDKAIESRTVVADVLAKFEKLAATSEVGDLPWKFYFKLYCFLDTDNVPKDSVEFAFMFEQAHEAVIHGHHPAPEENLQVLAALRLQYLQGDYTLHAAIPPLEEVYSLQRLKARISQSTKTFTPCERLEKRRTSFLEGTLRRSFRTGSVVRQKVEEEQMLDMWIKEEVSSARASIIDKWRKFQGMNQEQAMAKYMALIKEWPGYGSTLFDVECKEGGFPQELWLGVSADAVSVYKRGEGRPLEVFQYEHILSFGAPLANTYKIVVDERELLFETSEVVDVAKLMKAYISMIVKKRYSTTRSASSQGSSR
modifications: RED-tris-NTA dye on the His tag (Monolith His-Tag Labeling Kit)

Key:
[1] = biological target: T1, His-tagged MYO10^FERM (recombinant MYO10 MyTH4/FERM domain) (UniProt Q9HD67 1504-2058, RED-tris-NTA dye on the His tag (Monolith His-Tag Labeling Kit)); experiment: MST; His-tagged recombinant FERM domains labelled with RED-tris-NTA at 20 nM, integrin tail peptides at increasing concentration; three independent experiments pooled; conditions: both partners purified
T1 construct: Vector pET151; also called recombinant MYO10^FERM; MYO10 FERM domain; source: E. coli BL-21(DE3), purified (Protino Ni-TED column)
T1 sequence (looked up): B4 chain

[2] = biological target: B4; experiment: MST
[3] = biological target: T2, ITGA5 tail peptide (Homo sapiens); experiment: MST
T2 chain: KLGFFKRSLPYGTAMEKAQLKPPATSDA

[4] = biological target: T3, His-TLN1^FERM (recombinant talin-FERM domain) (UniProt P26039 86-403, RED-tris-NTA dye on the His tag (Monolith His-Tag Labeling Kit)); experiment: MST; His-tagged recombinant FERM domains labelled with RED-tris-NTA at 20 nM, integrin tail peptides at increasing concentration; three independent experiments pooled; conditions: both partners purified
T3 construct: Talin-1 (TLN1) FERM domain; source: E. coli BL-21(DE3), purified (Protino Ni-TED column)

Does B1 bind [1]?
Result: binds

And the Kd [2]?
The Kd was 15.8 µM.

B2 was tested. Which Kd [3] did it give?
Its Kd is 557 µM.

How did the Kd [1] turn out when B3 was run?
The Kd was 25.1 µM.

And the Kd [4]?
The Kd was 4.7 µM.

With B4 as the binder, how does the Kd [3] read?
Its Kd is 18.3 µM.
